The chains are these.
B1: GLS3000 F55T (antibody, name in Kabat numbering, V domains shown)
VH: QVQLVESGGGVVQPGRSLRLSCAASGFTFSNAWMHWVRQAPGKGLEWVAQIKAKSNNYATYYAESVKGRFTISRDDSKNSLYLQMNSLKTEDTAVYYCRYVHYGAYYGVDAWGQGTTVTVSS
VL: DIVMTQSPLSLPVTPGEPASISCRSSQSLVHSNRNTYLHWYQQKPGQAPRLLIYKVSNRTSGVPDRFSGSGSGTDFTLKISRVEAEDVGVYYCGQGTQVPYTFGQGTKLEIK
notes: one-arm IgG as m2
B2: GLS3000 G89A (antibody, name in Kabat numbering, V domains shown)
VH: QVQLVESGGGVVQPGRSLRLSCAASGFTFSNAWMHWVRQAPGKGLEWVAQIKAKSNNYATYYAESVKGRFTISRDDSKNSLYLQMNSLKTEDTAVYYCRYVHYGAYYGVDAWGQGTTVTVSS
VL: DIVMTQSPLSLPVTPGEPASISCRSSQSLVHSNRNTYLHWYQQKPGQAPRLLIYKVSNRFSGVPDRFSGSGSGTDFTLKISRVEAEDVGVYYCAQGTQVPYTFGQGTKLEIK
notes: one-arm IgG as m2
B3: GLS3000 F55Y (antibody, name in Kabat numbering, V domains shown)
VH: QVQLVESGGGVVQPGRSLRLSCAASGFTFSNAWMHWVRQAPGKGLEWVAQIKAKSNNYATYYAESVKGRFTISRDDSKNSLYLQMNSLKTEDTAVYYCRYVHYGAYYGVDAWGQGTTVTVSS
VL: DIVMTQSPLSLPVTPGEPASISCRSSQSLVHSNRNTYLHWYQQKPGQAPRLLIYKVSNRYSGVPDRFSGSGSGTDFTLKISRVEAEDVGVYYCGQGTQVPYTFGQGTKLEIK
notes: one-arm IgG as m2
B4: GLS3000 G89T (antibody, name in Kabat numbering, V domains shown)
VH: QVQLVESGGGVVQPGRSLRLSCAASGFTFSNAWMHWVRQAPGKGLEWVAQIKAKSNNYATYYAESVKGRFTISRDDSKNSLYLQMNSLKTEDTAVYYCRYVHYGAYYGVDAWGQGTTVTVSS
VL: DIVMTQSPLSLPVTPGEPASISCRSSQSLVHSNRNTYLHWYQQKPGQAPRLLIYKVSNRFSGVPDRFSGSGSGTDFTLKISRVEAEDVGVYYCTQGTQVPYTFGQGTKLEIK
notes: one-arm IgG as m2
B5: GLS3000 G89Q (antibody, name in Kabat numbering, V domains shown)
VH: QVQLVESGGGVVQPGRSLRLSCAASGFTFSNAWMHWVRQAPGKGLEWVAQIKAKSNNYATYYAESVKGRFTISRDDSKNSLYLQMNSLKTEDTAVYYCRYVHYGAYYGVDAWGQGTTVTVSS
VL: DIVMTQSPLSLPVTPGEPASISCRSSQSLVHSNRNTYLHWYQQKPGQAPRLLIYKVSNRFSGVPDRFSGSGSGTDFTLKISRVEAEDVGVYYCQQGTQVPYTFGQGTKLEIK
notes: one-arm IgG as m2
B6: GLS3000 G89N (antibody, name in Kabat numbering, V domains shown)
VH: QVQLVESGGGVVQPGRSLRLSCAASGFTFSNAWMHWVRQAPGKGLEWVAQIKAKSNNYATYYAESVKGRFTISRDDSKNSLYLQMNSLKTEDTAVYYCRYVHYGAYYGVDAWGQGTTVTVSS
VL: DIVMTQSPLSLPVTPGEPASISCRSSQSLVHSNRNTYLHWYQQKPGQAPRLLIYKVSNRFSGVPDRFSGSGSGTDFTLKISRVEAEDVGVYYCNQGTQVPYTFGQGTKLEIK
notes: one-arm IgG as m2
B7: GLS3000 G89V (antibody, name in Kabat numbering, V domains shown)
VH: QVQLVESGGGVVQPGRSLRLSCAASGFTFSNAWMHWVRQAPGKGLEWVAQIKAKSNNYATYYAESVKGRFTISRDDSKNSLYLQMNSLKTEDTAVYYCRYVHYGAYYGVDAWGQGTTVTVSS
VL: DIVMTQSPLSLPVTPGEPASISCRSSQSLVHSNRNTYLHWYQQKPGQAPRLLIYKVSNRFSGVPDRFSGSGSGTDFTLKISRVEAEDVGVYYCVQGTQVPYTFGQGTKLEIK
notes: one-arm IgG as m2
B8: GLS3000 F55V (antibody, name in Kabat numbering, V domains shown)
VH: QVQLVESGGGVVQPGRSLRLSCAASGFTFSNAWMHWVRQAPGKGLEWVAQIKAKSNNYATYYAESVKGRFTISRDDSKNSLYLQMNSLKTEDTAVYYCRYVHYGAYYGVDAWGQGTTVTVSS
VL: DIVMTQSPLSLPVTPGEPASISCRSSQSLVHSNRNTYLHWYQQKPGQAPRLLIYKVSNRVSGVPDRFSGSGSGTDFTLKISRVEAEDVGVYYCGQGTQVPYTFGQGTKLEIK
notes: one-arm IgG as m2
B9: GLS3000 G89W (antibody, name in Kabat numbering, V domains shown)
VH: QVQLVESGGGVVQPGRSLRLSCAASGFTFSNAWMHWVRQAPGKGLEWVAQIKAKSNNYATYYAESVKGRFTISRDDSKNSLYLQMNSLKTEDTAVYYCRYVHYGAYYGVDAWGQGTTVTVSS
VL: DIVMTQSPLSLPVTPGEPASISCRSSQSLVHSNRNTYLHWYQQKPGQAPRLLIYKVSNRFSGVPDRFSGSGSGTDFTLKISRVEAEDVGVYYCWQGTQVPYTFGQGTKLEIK
notes: one-arm IgG as m2
B10: GLS3000 G89I (antibody, name in Kabat numbering, V domains shown)
VH: QVQLVESGGGVVQPGRSLRLSCAASGFTFSNAWMHWVRQAPGKGLEWVAQIKAKSNNYATYYAESVKGRFTISRDDSKNSLYLQMNSLKTEDTAVYYCRYVHYGAYYGVDAWGQGTTVTVSS
VL: DIVMTQSPLSLPVTPGEPASISCRSSQSLVHSNRNTYLHWYQQKPGQAPRLLIYKVSNRFSGVPDRFSGSGSGTDFTLKISRVEAEDVGVYYCIQGTQVPYTFGQGTKLEIK
notes: one-arm IgG as m2
B11: GLS3000 G89R (antibody, name in Kabat numbering, V domains shown)
VH: QVQLVESGGGVVQPGRSLRLSCAASGFTFSNAWMHWVRQAPGKGLEWVAQIKAKSNNYATYYAESVKGRFTISRDDSKNSLYLQMNSLKTEDTAVYYCRYVHYGAYYGVDAWGQGTTVTVSS
VL: DIVMTQSPLSLPVTPGEPASISCRSSQSLVHSNRNTYLHWYQQKPGQAPRLLIYKVSNRFSGVPDRFSGSGSGTDFTLKISRVEAEDVGVYYCRQGTQVPYTFGQGTKLEIK
notes: one-arm IgG as m2
B12: GLS3000 G89F (antibody, name in Kabat numbering, V domains shown)
VH: QVQLVESGGGVVQPGRSLRLSCAASGFTFSNAWMHWVRQAPGKGLEWVAQIKAKSNNYATYYAESVKGRFTISRDDSKNSLYLQMNSLKTEDTAVYYCRYVHYGAYYGVDAWGQGTTVTVSS
VL: DIVMTQSPLSLPVTPGEPASISCRSSQSLVHSNRNTYLHWYQQKPGQAPRLLIYKVSNRFSGVPDRFSGSGSGTDFTLKISRVEAEDVGVYYCFQGTQVPYTFGQGTKLEIK
notes: one-arm IgG as m2
B13: GLS3000 G89L (antibody, name in Kabat numbering, V domains shown)
VH: QVQLVESGGGVVQPGRSLRLSCAASGFTFSNAWMHWVRQAPGKGLEWVAQIKAKSNNYATYYAESVKGRFTISRDDSKNSLYLQMNSLKTEDTAVYYCRYVHYGAYYGVDAWGQGTTVTVSS
VL: DIVMTQSPLSLPVTPGEPASISCRSSQSLVHSNRNTYLHWYQQKPGQAPRLLIYKVSNRFSGVPDRFSGSGSGTDFTLKISRVEAEDVGVYYCLQGTQVPYTFGQGTKLEIK
notes: one-arm IgG as m2
B14: GLS3000 G89H (antibody, name in Kabat numbering, V domains shown)
VH: QVQLVESGGGVVQPGRSLRLSCAASGFTFSNAWMHWVRQAPGKGLEWVAQIKAKSNNYATYYAESVKGRFTISRDDSKNSLYLQMNSLKTEDTAVYYCRYVHYGAYYGVDAWGQGTTVTVSS
VL: DIVMTQSPLSLPVTPGEPASISCRSSQSLVHSNRNTYLHWYQQKPGQAPRLLIYKVSNRFSGVPDRFSGSGSGTDFTLKISRVEAEDVGVYYCHQGTQVPYTFGQGTKLEIK
notes: one-arm IgG as m2
B15: GLS3000 G89K (antibody, name in Kabat numbering, V domains shown)
VH: QVQLVESGGGVVQPGRSLRLSCAASGFTFSNAWMHWVRQAPGKGLEWVAQIKAKSNNYATYYAESVKGRFTISRDDSKNSLYLQMNSLKTEDTAVYYCRYVHYGAYYGVDAWGQGTTVTVSS
VL: DIVMTQSPLSLPVTPGEPASISCRSSQSLVHSNRNTYLHWYQQKPGQAPRLLIYKVSNRFSGVPDRFSGSGSGTDFTLKISRVEAEDVGVYYCKQGTQVPYTFGQGTKLEIK
notes: one-arm IgG as m2
B16: GLS3000 G89P (antibody, name in Kabat numbering, V domains shown)
VH: QVQLVESGGGVVQPGRSLRLSCAASGFTFSNAWMHWVRQAPGKGLEWVAQIKAKSNNYATYYAESVKGRFTISRDDSKNSLYLQMNSLKTEDTAVYYCRYVHYGAYYGVDAWGQGTTVTVSS
VL: DIVMTQSPLSLPVTPGEPASISCRSSQSLVHSNRNTYLHWYQQKPGQAPRLLIYKVSNRFSGVPDRFSGSGSGTDFTLKISRVEAEDVGVYYCPQGTQVPYTFGQGTKLEIK
notes: one-arm IgG as m2
B17: GLS3000 G89E (antibody, name in Kabat numbering, V domains shown)
VH: QVQLVESGGGVVQPGRSLRLSCAASGFTFSNAWMHWVRQAPGKGLEWVAQIKAKSNNYATYYAESVKGRFTISRDDSKNSLYLQMNSLKTEDTAVYYCRYVHYGAYYGVDAWGQGTTVTVSS
VL: DIVMTQSPLSLPVTPGEPASISCRSSQSLVHSNRNTYLHWYQQKPGQAPRLLIYKVSNRFSGVPDRFSGSGSGTDFTLKISRVEAEDVGVYYCEQGTQVPYTFGQGTKLEIK
notes: one-arm IgG as m2
B18: GLS3000 G89M (antibody, name in Kabat numbering, V domains shown)
VH: QVQLVESGGGVVQPGRSLRLSCAASGFTFSNAWMHWVRQAPGKGLEWVAQIKAKSNNYATYYAESVKGRFTISRDDSKNSLYLQMNSLKTEDTAVYYCRYVHYGAYYGVDAWGQGTTVTVSS
VL: DIVMTQSPLSLPVTPGEPASISCRSSQSLVHSNRNTYLHWYQQKPGQAPRLLIYKVSNRFSGVPDRFSGSGSGTDFTLKISRVEAEDVGVYYCMQGTQVPYTFGQGTKLEIK
notes: one-arm IgG as m2
B19: GLS3000 F55W (antibody, name in Kabat numbering, V domains shown)
VH: QVQLVESGGGVVQPGRSLRLSCAASGFTFSNAWMHWVRQAPGKGLEWVAQIKAKSNNYATYYAESVKGRFTISRDDSKNSLYLQMNSLKTEDTAVYYCRYVHYGAYYGVDAWGQGTTVTVSS
VL: DIVMTQSPLSLPVTPGEPASISCRSSQSLVHSNRNTYLHWYQQKPGQAPRLLIYKVSNRWSGVPDRFSGSGSGTDFTLKISRVEAEDVGVYYCGQGTQVPYTFGQGTKLEIK
notes: one-arm IgG as m2
B20: GLS3000 G89D (antibody, name in Kabat numbering, V domains shown)
VH: QVQLVESGGGVVQPGRSLRLSCAASGFTFSNAWMHWVRQAPGKGLEWVAQIKAKSNNYATYYAESVKGRFTISRDDSKNSLYLQMNSLKTEDTAVYYCRYVHYGAYYGVDAWGQGTTVTVSS
VL: DIVMTQSPLSLPVTPGEPASISCRSSQSLVHSNRNTYLHWYQQKPGQAPRLLIYKVSNRFSGVPDRFSGSGSGTDFTLKISRVEAEDVGVYYCDQGTQVPYTFGQGTKLEIK
notes: one-arm IgG as m2

T1 sequence (P07766 23-126): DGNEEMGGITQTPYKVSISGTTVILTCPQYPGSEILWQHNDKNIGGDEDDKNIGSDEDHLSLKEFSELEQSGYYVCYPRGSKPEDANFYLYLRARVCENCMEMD

This experiment concerns the target T1, CD3 epsilon homodimer protein (UniProt P07766 23-126).
T1 construct: also called CD3 (CD3 epsilon)
Description: SPR Biacore T200, CD3e homodimer on chip, vs unaltered GLS3000 antibody. Background: SPR reads the build-up and loss of mass on a sensor chip optically.
Description: An appropriate amount of CD3 epsilon homodimer protein was immobilized onto Sensor chip CM4 (GE Healthcare Japan Corp.) by the amine coupling method. Then, the antibody having an appropriate concentration was injected thereto as an analyte and allowed to interact with the CD3 epsilon homodimer protein on the sensor chip. Then, the sensor chip was regenerated by the injection of 10 mmol/L glycine-HCl (pH 1.5). The assay was conducted at 25 degrees C., and HBS-EP+(GE Healthcare Japan Corp.) was used as a running buffer. […] Each parameter was calculated using Biacore T200 Evaluation Software (GE Healthcare Japan Corp.).
For the molecule B1, the “ratio of amounts bound (Z=Y/X)” value was 0.41.
In the case of B2, the “ratio of amounts bound (Z=Y/X)” value was determined as 1.13.
On to B3, for which the “ratio of amounts bound (Z=Y/X)” value was 0.92.
The result for B4 reads 1.03; that for B5, 0.38; that for B6, 0.8.
In the case of B7, the “ratio of amounts bound (Z=Y/X)” value amounted to 1.63.
The same measure for B8: 0.71.
On to B9, for which the “ratio of amounts bound (Z=Y/X)” value amounted to 0.5.
Regarding B10, the “ratio of amounts bound (Z=Y/X)” value amounted to 1.07.
As for B11, the “ratio of amounts bound (Z=Y/X)” value was 0.19.
Consider B12, for which the “ratio of amounts bound (Z=Y/X)” value turned out to be 1.09.
On to B13, for which the “ratio of amounts bound (Z=Y/X)” value worked out at 0.94.
B14: the “ratio of amounts bound (Z=Y/X)” value came to 0.7.
The same measure for B15: 0.4.
The result for B16 reads 0.35.
The same measure for B17: 0.26; for B18: 0.52.
As to B19, the “ratio of amounts bound (Z=Y/X)” value was found to be 0.69.
The result for B20 reads 0.33.

Values taken from patent publication US20210388087A1 (Chugai, published 2021).
